Laboratory results taken from patent US20070269808A1 (published 2007).

What was measured:
[1] = target: T1, Notch (UniProt P07207 53-2703, limits assumed); assay: confocal immunofluorescence of cells incubated with Wg conditioned medium, anti-Wg antiserum and cy3 secondary antibody
T1 construct: whole, on cells

[2] = target: Drosophila frizzled 2 (Dfz2) (Drosophila), Q9VVX3; assay: confocal immunofluorescence, human 293 cells transiently transfected with Dfz2, pretreated with chlorate and heparatinase
Sequence of Drosophila frizzled 2 (Dfz2) (Drosophila), Q9VVX3 (Q9VVX3 other isoform, or with tags, fused parts or gaps limits assumed): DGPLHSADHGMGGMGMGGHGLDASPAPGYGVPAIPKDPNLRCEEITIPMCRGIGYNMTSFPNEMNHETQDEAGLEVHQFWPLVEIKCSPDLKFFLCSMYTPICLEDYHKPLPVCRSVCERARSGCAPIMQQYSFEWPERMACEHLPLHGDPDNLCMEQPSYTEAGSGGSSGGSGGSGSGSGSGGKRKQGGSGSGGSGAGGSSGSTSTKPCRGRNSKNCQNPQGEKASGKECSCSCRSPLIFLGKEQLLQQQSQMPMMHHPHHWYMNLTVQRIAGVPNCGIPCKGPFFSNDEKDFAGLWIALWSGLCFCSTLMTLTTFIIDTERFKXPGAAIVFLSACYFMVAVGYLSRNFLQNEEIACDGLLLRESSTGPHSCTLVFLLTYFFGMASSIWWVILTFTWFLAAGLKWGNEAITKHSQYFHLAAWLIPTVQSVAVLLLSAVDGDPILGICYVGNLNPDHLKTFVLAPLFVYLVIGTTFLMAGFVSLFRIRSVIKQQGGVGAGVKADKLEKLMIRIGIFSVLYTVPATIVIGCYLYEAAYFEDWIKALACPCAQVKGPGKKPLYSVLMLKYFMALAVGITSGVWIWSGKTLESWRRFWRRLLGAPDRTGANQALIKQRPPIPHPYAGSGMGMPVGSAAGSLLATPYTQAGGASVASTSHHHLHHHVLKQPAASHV

[3] = target: Drosophila frizzled 2 (Dfz2) (Drosophila), Q9VVX3; assay: confocal immunofluorescence, Dfz2-transfected S2 cells incubated with Wg conditioned medium, anti-Wg antiserum

T1 sequence (P07207 53-2703 limits assumed): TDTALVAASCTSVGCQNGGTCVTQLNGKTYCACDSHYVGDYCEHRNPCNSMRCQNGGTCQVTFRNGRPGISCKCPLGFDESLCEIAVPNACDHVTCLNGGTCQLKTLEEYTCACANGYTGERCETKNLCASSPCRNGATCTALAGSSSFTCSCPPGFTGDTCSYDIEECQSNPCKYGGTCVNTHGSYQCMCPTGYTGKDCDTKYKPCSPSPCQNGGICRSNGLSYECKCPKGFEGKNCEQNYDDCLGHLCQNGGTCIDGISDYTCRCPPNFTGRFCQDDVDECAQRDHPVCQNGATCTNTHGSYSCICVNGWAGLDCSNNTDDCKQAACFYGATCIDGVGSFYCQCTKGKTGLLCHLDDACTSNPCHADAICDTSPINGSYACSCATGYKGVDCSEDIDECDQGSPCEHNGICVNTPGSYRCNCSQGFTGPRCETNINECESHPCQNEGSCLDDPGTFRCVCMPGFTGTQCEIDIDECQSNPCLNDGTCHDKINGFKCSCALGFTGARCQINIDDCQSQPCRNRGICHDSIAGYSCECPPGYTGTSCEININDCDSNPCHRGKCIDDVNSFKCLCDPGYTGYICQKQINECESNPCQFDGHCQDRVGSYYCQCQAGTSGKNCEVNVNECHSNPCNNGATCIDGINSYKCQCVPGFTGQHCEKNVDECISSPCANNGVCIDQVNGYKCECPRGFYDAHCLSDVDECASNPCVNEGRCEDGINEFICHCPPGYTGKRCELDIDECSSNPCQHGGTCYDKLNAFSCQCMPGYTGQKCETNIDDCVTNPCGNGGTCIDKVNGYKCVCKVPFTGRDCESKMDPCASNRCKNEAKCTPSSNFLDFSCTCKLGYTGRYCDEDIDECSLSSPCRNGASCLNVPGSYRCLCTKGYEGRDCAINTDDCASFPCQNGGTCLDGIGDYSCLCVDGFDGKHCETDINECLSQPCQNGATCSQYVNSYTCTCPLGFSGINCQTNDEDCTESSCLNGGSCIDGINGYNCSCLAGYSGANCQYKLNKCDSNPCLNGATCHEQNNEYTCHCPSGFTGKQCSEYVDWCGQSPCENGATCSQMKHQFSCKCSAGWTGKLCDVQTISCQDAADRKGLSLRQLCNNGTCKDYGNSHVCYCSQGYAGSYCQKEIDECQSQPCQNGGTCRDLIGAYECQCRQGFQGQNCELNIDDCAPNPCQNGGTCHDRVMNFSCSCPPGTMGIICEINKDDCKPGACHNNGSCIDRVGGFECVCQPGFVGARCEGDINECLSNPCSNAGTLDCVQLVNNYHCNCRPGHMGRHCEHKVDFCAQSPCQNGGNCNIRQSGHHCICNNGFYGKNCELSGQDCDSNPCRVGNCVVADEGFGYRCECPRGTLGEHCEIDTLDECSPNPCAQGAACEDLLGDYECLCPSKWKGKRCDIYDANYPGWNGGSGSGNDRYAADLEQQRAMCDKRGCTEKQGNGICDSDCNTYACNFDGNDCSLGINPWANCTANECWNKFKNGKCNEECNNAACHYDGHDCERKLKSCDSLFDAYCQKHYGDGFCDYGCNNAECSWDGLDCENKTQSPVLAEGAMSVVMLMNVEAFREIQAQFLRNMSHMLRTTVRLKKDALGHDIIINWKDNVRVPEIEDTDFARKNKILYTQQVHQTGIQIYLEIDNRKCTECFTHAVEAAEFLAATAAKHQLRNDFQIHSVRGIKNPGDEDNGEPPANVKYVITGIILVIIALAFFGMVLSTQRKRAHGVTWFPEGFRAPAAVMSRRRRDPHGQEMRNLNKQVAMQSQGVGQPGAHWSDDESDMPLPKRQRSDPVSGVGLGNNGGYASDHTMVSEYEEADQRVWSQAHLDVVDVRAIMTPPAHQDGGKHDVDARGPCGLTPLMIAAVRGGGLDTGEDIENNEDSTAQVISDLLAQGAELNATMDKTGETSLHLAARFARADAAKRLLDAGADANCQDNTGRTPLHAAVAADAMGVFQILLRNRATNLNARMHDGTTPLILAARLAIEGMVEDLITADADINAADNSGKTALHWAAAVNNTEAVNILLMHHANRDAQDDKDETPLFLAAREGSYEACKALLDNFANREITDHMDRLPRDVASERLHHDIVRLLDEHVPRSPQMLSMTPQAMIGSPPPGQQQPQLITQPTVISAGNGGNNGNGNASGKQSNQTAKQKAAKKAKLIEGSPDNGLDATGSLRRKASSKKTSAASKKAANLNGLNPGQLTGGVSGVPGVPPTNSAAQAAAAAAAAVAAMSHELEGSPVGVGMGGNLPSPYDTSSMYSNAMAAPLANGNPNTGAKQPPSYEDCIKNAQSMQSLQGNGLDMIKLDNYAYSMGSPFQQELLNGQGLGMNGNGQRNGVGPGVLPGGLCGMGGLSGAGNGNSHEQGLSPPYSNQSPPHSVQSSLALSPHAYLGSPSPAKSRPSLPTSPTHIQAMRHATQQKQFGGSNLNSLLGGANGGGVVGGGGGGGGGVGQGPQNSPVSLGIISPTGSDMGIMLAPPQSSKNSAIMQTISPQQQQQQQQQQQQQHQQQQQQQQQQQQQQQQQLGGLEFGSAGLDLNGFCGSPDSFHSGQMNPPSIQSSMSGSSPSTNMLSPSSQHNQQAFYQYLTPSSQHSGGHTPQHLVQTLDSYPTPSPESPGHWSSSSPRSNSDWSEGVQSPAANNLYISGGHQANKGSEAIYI

B1: wingless (Wg) protein (ligand, Drosophila, UniProt P09615 18-468, looked up)
chain: GSSLSQVEGKQKSGRGRGSMWWGIAKVGEPNNITPIMYMDPAIHSTLRRKQRRLVRDNPGVLGALVKGANLAISECQHQFRNRRWNCSTRNFSRGKNLFGKIVDRGCRETSFIYAITSAAVTHSIARACSEGTIESCTCDYSHQSRSPQANHQAGSVAGVRDWEWGGCSDNIGFGFKFSREFVDTGERGRNLREKMNLHNNEAGRAHVQAEMRQECKCHGMSGSCTVKTCWMRLANFRVIGDNLKARFDGATRVQVTNSLRATNALAPVSPNAAGSNSVGSNGLIIPQSGLVYGEEEERMLNDHMPDILLENSHPISKIHHPNMPSPNSLPQAGQRGGRNGRRQGRKHNRYHFQLNPHNPEHKPPGSKDLVYLEPSPSFCEKNLRQGILGTHGRQCNETSLGVDGCGLMCCGRGYRRDEVVVVERCACTFHWCCEVKCKLCRTKKVIYTCL
notes: mature; Used as concentrated conditioned medium, not purified; It was detected as bands of about 52 kD, 'the size of the mature Wg protein'; also called soluble Wg protein; metabolically labeled Wg protein
- binding result [1]: no binding
- percent of transfected cells positive [2]: 10 to 20%
- percent of cells stained [3]: 80%
